Laboratory results: US20230348564A1, “ANTI-CANCER PROTEINS” (UNICHEM LABORATORIES LTD, priority 2020, published 2023)

Tests used:
PANC-1 [1] = experiment: JC-1 assay, mitochondrial membrane depolarization; format: cell-based, Human; conditions: 16h
Procedure: (§1) To evaluate the in vitro apoptotic effect of recombinant lectin having the amino acid sequence of SEQ ID NO.2 in MDA-MB-231 (breast cancer) and PANG-1 (pancreatic cancer) cell line by JC-1 assay, an increase in mitochondrial membrane depolarization was used as a marker of apoptosis. […] 2 using JC-1 dye based method. […] The cell lines were grown in Dulbecco's Modified Eagle Medium (DMEM)+10% heat inactivated FBS at 37° C. (95% humidity and 5% CO2). […] Recombinant lectin having the amino acid sequence of SEQ ID NO. 2 was diluted in serum free medium. Doxorubicin was used as positive control and stock solution was prepared in dimethyl sulfoxide (DMSO). […] The cells were then incubated overnight under growth conditions to allow the cell recovery and exponential growth. Cells were treated with the recombinant lectin of SEQ ID NO. […] Following respective treatments the cells in the above plate were incubated for 16h in CO2 incubator at 37° C., 5% CO2 and 95% humidity.
(§2) After 16h of incubation, the supernatants were discarded and 100 μL of JC1-dye solution (prepared by diluting 1 mM DMSO stock in to 10 μM in 1×PBS) was added to each well. The cells were then incubated with the dye in CO2 incubator at 37° C. for 15 min. After 15 min of incubation, the supernatant was removed and the cells were washed twice with 1×PBS and then 100 μL of 1×PBS was added to each well. Red fluorescence (excitation 550 nm, emission 600 nm) and green fluorescence (excitation 485 nm, emission 535 nm) were measured using Biotek Synergy FIT plate reader. The mitochondrial membrane potential […] was calculated as the ratio of intensity of red fluorescence to intensity of green fluorescence described as follows:
(§3) ΔΨM=Intensity of red fluorescence/Intensity of green fluorescence
(§4) The percentage decrease of Red fluorescence/Green fluorescence corresponding to each treatment was calculated using the following formula:
(§5) Where X=Δψm corresponding to treated cells R=ΔΨM corresponding to control wells.

MDA-MB-231 = experiment: JC-1 assay, mitochondrial membrane depolarization; format: cell-based, Human; conditions: 16h
Procedure: as §1, §2, §3, §4, §5

PANC-1 [2] = test system: PANC-1
[3] = test system: PBMC (Peripheral blood mononuclear cells); experiment: cell based in vitro cytotoxicity/anti-proliferation assay (summary); conditions: normal cells
Procedure: The percentage cytotoxicity was calculated using the statistical tool.

B1: SEQ ID NO. 2: recombinant lectin; variant of the S. rolfsii lectin amino acid sequence (reported as Rec-2 in WO 2010/095143) (protein)
chain: TYKITVRVYQTNPDAFFHPVEKTVWKYANGGTWTITDDQHVLTMGGSGTSGTLRFHADNGESFTATFGVHNYKRWCDIVTNLAADETGMVINQQYYSQKNREEARERQLSNYQVKNAKGRNFQIVYTEAEGNDLHANLIIG
modifications: In vitro synthesis
Average Green fluorescence (PANC-1 [1]; 2.5 μg/mL): 315.0 | Average Red fluorescence (PANC-1 [1]; 2.5 μg/mL): 595.7 | Percentage decrease in MMP (%) (PANC-1 [1]; 2.5 μg/mL): 9.5% | Red/Green ratio (PANC-1 [1]; 2.5 μg/mL): 1.89 | depolarization of mitochondrial membrane (PANC-1 [1]; 2.5 μg/mL-80 μg/mL): 9.5%-51.7% | Average Green fluorescence (PANC-1 [1]; 5 μg/mL): 293.3 | Average Red fluorescence (PANC-1 [1]; 5 μg/mL): 452.3 | Percentage decrease in MMP (%) (PANC-1 [1]; 5 μg/mL): 26.2% | Red/Green ratio (PANC-1 [1]; 5 μg/mL): 1.54 | Average Green fluorescence (PANC-1 [1]; 10 μg/mL): 271.7 | Average Red fluorescence (PANC-1 [1]; 10 μg/mL): 301.7 | Percentage decrease in MMP (%) (PANC-1 [1]; 10 μg/mL): 46.9% | Red/Green ratio (PANC-1 [1]; 10 μg/mL): 1.11 | Average Green fluorescence (PANC-1 [1]; 20 μg/mL): 234.3 | Average Red fluorescence (PANC-1 [1]; 20 μg/mL): 265.7 | Percentage decrease in MMP (%) (PANC-1 [1]; 20 μg/mL): 45.8% | Red/Green ratio (PANC-1 [1]; 20 μg/mL): 1.13 | Average Green fluorescence (PANC-1 [1]; 40 μg/mL): 263.3 | Average Red fluorescence (PANC-1 [1]; 40 μg/mL): 266.0 | Percentage decrease in MMP (%) (PANC-1 [1]; 40 μg/mL): 51.7% | Red/Green ratio (PANC-1 [1]; 40 μg/mL): 1.01 | Average Green fluorescence (PANC-1 [1]; 80 μg/mL): 257.0 | Average Red fluorescence (PANC-1 [1]; 80 μg/mL): 272.0 | Percentage decrease in MMP (%) (PANC-1 [1]; 80 μg/mL): 49.4% | Red/Green ratio (PANC-1 [1]; 80 μg/mL): 1.06 | Average Green fluorescence (MDA-MB-231; 2.5 μg/mL): 703.0 | Average Red fluorescence (MDA-MB-231; 2.5 μg/mL): 769.7 | Percentage decrease in MMP (%) (MDA-MB-231; 2.5 μg/mL): 54.1% | Red/Green ratio (MDA-MB-231; 2.5 μg/mL): 1.09 | depolarization of mitochondrial membrane (MDA-MB-231; 2.5 μg/mL-80 μg/mL): 19.8%-54.1% | Average Green fluorescence (MDA-MB-231; 5 μg/mL): 560.0 | Average Red fluorescence (MDA-MB-231; 5 μg/mL): 709.3 | Percentage decrease in MMP (%) (MDA-MB-231; 5 μg/mL): 46.9% | Red/Green ratio (MDA-MB-231; 5 μg/mL): 1.27 | Average Green fluorescence (MDA-MB-231; 10 μg/mL): 596.3 | Average Red fluorescence (MDA-MB-231; 10 μg/mL): 1098.3 | Percentage decrease in MMP (%) (MDA-MB-231; 10 μg/mL): 22.8% | Red/Green ratio (MDA-MB-231; 10 μg/mL): 1.84 | Average Green fluorescence (MDA-MB-231; 20 μg/mL): 497.3 | Average Red fluorescence (MDA-MB-231; 20 μg/mL): 929.3 | Percentage decrease in MMP (%) (MDA-MB-231; 20 μg/mL): 21.7% | Red/Green ratio (MDA-MB-231; 20 μg/mL): 1.87 | Average Green fluorescence (MDA-MB-231; 40 μg/mL): 535.7 | Average Red fluorescence (MDA-MB-231; 40 μg/mL): 1009.0 | Percentage decrease in MMP (%) (MDA-MB-231; 40 μg/mL): 21.0% | Red/Green ratio (MDA-MB-231; 40 μg/mL): 1.88 | Average Green fluorescence (MDA-MB-231; 80 μg/mL): 500.3 | Average Red fluorescence (MDA-MB-231; 80 μg/mL): 957.3 | Percentage decrease in MMP (%) (MDA-MB-231; 80 μg/mL): 19.8% | Red/Green ratio (MDA-MB-231; 80 μg/mL): 1.91 | % Cytotoxicity (T-24): 93.1% | % Cytotoxicity (PANC-1 [2]): 60.8% | % Cytotoxicity (AGS): 65.3% | % Cytotoxicity ([3]; listed as SEQ ID NO 2): Nil | % Cytotoxicity ([3]; listed as SEQ ID No 2): did not show cytotoxic effect | % Cytotoxicity (HT-29): 54.9%
